This is an account of results in publication PMC5955624.

Test in all cases: two-hybrid
In test [1] the target is chimeric protein SUMO-Tpz1(243-420) (fission yeast (Schizosaccharomyces pombe)) (UniProt O14246).
For test [2], the target named is Tpz1 (fission yeast (Schizosaccharomyces pombe)) (UniProt O14246).
Test [3] has as its target SUMO (small ubiquitin-like modifier, encoded by pmt3) (fission yeast (Schizosaccharomyces pombe)) (UniProt O13351).
UniProt O13351, sequence (O13351 whole entry): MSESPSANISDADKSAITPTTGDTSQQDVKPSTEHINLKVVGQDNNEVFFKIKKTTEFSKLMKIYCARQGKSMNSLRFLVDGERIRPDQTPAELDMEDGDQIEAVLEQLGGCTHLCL

UniProt O14246, sequence (O14246 whole entry): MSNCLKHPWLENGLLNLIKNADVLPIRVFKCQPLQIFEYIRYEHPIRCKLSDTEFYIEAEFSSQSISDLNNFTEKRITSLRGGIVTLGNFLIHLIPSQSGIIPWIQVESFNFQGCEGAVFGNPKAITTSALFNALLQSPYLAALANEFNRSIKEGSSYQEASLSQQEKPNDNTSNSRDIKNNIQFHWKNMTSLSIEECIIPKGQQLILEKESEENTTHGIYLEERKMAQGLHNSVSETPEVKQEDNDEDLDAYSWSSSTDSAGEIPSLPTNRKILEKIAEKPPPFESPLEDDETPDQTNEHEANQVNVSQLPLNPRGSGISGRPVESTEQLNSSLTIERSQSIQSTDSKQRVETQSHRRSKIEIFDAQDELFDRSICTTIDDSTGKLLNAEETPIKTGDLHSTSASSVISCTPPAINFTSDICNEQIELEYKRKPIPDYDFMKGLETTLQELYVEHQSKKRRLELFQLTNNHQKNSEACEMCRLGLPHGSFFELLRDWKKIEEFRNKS

On to “Ten1Stn1 fusion protein (Ten1, Gly15 linker, Stn1)”, for which the β-galactosidase activity (two-hybrid) (β-galactosidase U) came to 50 in test [1], 7 in test [2] and 50 in test [3].
